Test results reported in patent publication US20230313217A1, “CHLOROPLAST TARGETING PEPTIDES AND CONJUGATES AND COMPOSITIONS THEREOF” (The Regents of the University of California, priority 2021, published 2023).
Ends that are not written are not given here.

Columns and labels:
[1] = Hydrodynamic size by dynamic light scattering; format: physicochemical; settings: 10 mM TES buffer, pH 7
Method: The resulting PEI-SWCNT suspension was characterized by measuring the absorbance spectra on a UV-vis absorbance spectrophotometer (UV-2600, Shimadzu). The quality of the SWCNT suspension was determined by analyzing absorbance peaks at 632 nm. This measurement was performed with triplicates. The concentration of the PEI-SWCNT was determined spectrophotometrically using the absorption value at 632 nm and utilizing the equation (absorbance at 632 nm/extinction coefficient of 0.036)=mg L^−1. The final concentration obtained after purification ranged from 18 to 30 mg/L. The nanoparticle ζ potential was measured using a Zetasizer (Nano ZS, Malvern Instruments) in samples suspended in 10 mM TES buffer pH 7.0, with 0.1 mM NaCl. The hydrodynamic size was measured using Zetasizer (Nano ZS, Malvern Instruments) in samples suspended in a 10 mM TES buffer at pH 7.
Characterization of Nanomaterials. All nanomaterials were characterized by absorbance UV-vis spectroscopy (UV-2600 Shimadzu), hydrodynamic size (Nano S), and ζ potential (Nano ZS). The nanomaterial ζ potential and hydrodynamic diameter were measured in a 10 mM TES buffer (pH 7.0). The ζ potential measurements were performed in 0.1 mM NaCl to improve conductivity and analyzed by the Hückel approximation model.^111 CD fluorescence emission was collected using a fluorescence spectrometer (Horiba PTI QM-400). […]

[2] = tested on: isolated chloroplasts; assay: Intact chloroplast analysis by DIC microscopy; set-up: species or system Arabidopsis thaliana; settings: 1 and 5 days, 20 mg/L / 2 mg/L
Source text: Interactions of Targeted Carbon Nanostructures with Plant Cell and Chloroplast Membranes. Damage to plant lipid membranes may cause ion and molecule permeability changes across the membrane, interruption of metabolic processes, intracellular signaling, and trafficking of biomolecules.^65,66 The application of targeted nanostructures with high charge allows penetration of plant cell barriers and localization inside organelles that could cause disruption in lipid membrane integrity. Plant cell membrane intactness in leaves treated with TP-β-CDs or TP-pATV1-SWCNTs (Table 1) was assessed by staining dead cells with propidium iodide (PI) dye followed by imaging under confocal microscopy (FIG. 7A). PI is a nonpermeable dye that only crosses the cell membranes when they are damaged. The overall percentage of intact cells without PI stained nuclei was calculated relative to the total number of cells (FIG. 7B). […] Both TP-β-CDs and TP-pATV1-SWCNTs maintained more than 93% of plant cells with intact membranes after 1 and 5 days of exposure, similar to controls without nanoparticles (FIG. 7B). […]
Identification of intact chloroplast was performed as reported in previous studies^4,5 with some modifications. […] The average from ten images from each of the seven biological replicates was quantified for calculating the average percentage of intact chloroplasts.

[3] = tested on: Arabidopsis leaf tissues; assay: Chlorophyll content index (SPAD) measurements; format: in vivo, Arabidopsis thaliana; settings: 20 mg/L / 2 mg/L
Method: Chlorophyll content index (CCI) was measured in plants treated one and five days after treatment with nanomaterials and buffer control solution (10 mM TES, pH 7.0). Three-week-old Arabidopsis plants were exposed to β-CD, TP-β-CD, pATV1-SWCNT, or TP-pATV1-SWCNT. The CCI measurements were performed using chlorophyll meters (SPAD-502 plus, Konica Minolta, Tokyo, Japan; CCI readout resolution: 0.1) with each leaf being measured three times for CCI readouts. The onset of leaf senescence was determined by a marked decrease in chlorophyll levels (FIG. 14B). Experiments before 4-weeks of development are ideal to avoid plant senescence symptoms such as the increase in programmed cell death rates and decrease in chlorophyll content.^6-9

With “TP-β-CD: carbon dots with β-cyclodextrin molecular baskets covalently bonded to chloroplast targeting peptide MASSMLSSATMVGGC (SEQ ID NO:5) (also: covalently bonded to carbon dots with β-cyclodextrin, site not given here)” the “hydrodynamic size (DLS)” value [1] was 27.8±5.8 nm, the chloroplast membrane intactness [2] was “did not affect chloroplast membrane damage” and the “chlorophyll content index (CCI)” value ([3]; after 1 day of exposure) was 35.5±1.4. For the same substance, the “chlorophyll content index (CCI)” value ([3]; after 5 days of exposure) was 38.0±2.8.
